How the values were obtained:
UGT1A1 = molecular target: T1, UGT1A1 (Homo sapiens, UniProt P22309); details: tRes-3-O-glucuronidation; cited from earlier work
T1 sequence (P22309 26-533): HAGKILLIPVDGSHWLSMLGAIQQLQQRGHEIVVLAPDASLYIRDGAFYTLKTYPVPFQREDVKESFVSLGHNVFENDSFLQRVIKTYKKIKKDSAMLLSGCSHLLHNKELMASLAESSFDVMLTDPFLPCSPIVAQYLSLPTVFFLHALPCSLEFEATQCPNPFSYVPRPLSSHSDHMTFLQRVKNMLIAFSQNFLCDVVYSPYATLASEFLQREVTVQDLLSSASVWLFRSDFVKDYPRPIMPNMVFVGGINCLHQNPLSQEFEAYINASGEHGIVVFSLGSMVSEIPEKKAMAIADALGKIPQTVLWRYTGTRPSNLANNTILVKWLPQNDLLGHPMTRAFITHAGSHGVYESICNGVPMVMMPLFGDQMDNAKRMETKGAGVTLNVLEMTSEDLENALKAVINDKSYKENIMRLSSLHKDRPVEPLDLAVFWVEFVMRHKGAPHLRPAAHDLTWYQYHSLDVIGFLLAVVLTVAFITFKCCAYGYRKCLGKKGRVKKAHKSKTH

UGT1A9 = molecular target: T2, UGT1A9 (Homo sapiens, UniProt O60656); details: cited from earlier work; for Km: affinity of UGT1A9 for tRes and natural analogs
T2 sequence (O60656 26-530): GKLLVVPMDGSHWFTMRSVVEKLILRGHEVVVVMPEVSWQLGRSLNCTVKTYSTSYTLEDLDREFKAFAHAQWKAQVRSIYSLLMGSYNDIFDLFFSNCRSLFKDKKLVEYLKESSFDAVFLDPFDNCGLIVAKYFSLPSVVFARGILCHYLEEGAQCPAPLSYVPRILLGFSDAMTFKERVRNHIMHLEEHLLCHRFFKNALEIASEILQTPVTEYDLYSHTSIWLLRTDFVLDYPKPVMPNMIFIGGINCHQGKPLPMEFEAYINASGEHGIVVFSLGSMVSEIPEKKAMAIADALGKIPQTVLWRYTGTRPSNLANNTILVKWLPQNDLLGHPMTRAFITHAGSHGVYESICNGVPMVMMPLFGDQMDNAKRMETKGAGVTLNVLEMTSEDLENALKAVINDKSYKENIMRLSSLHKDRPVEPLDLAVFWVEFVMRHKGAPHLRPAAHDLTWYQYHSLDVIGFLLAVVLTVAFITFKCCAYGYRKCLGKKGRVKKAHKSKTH

[1] = substrate: COc1ccc(/C=C(/C(=O)O)c2cc(OC)c(OC)c(OC)c2)cc1O; test: Steady state kinetics of glucuronidation by recombinant UGT1A9; format: in vitro ADME, human; details: other: NI-12a-O-gluc formation, UDP-GlcUA 3 mM, 60 min, 37 °C
[2] = substrate: COc1ccc(C=Cc2cc(OC)cc(OC)c2/C=N/O)cc1; test: Steady state kinetics of glucuronidation by recombinant UGT1A1; format: in vitro ADME, human; details: other: NI-ST-05–N–O-gluc formation; estimated based on an incomplete data set
[3] = substrate: COc1ccc(/C=C(/C(=O)O)c2cc(OC)c(OC)c(OC)c2)cc1O; test: Steady state kinetics of glucuronidation by recombinant UGT1A7; format: in vitro ADME, human; details: other: NI-12a-O-gluc formation, UDP-GlcUA 3 mM, 60 min, 37 °C
[4] = substrate: COc1ccc(/C=C(/C(=O)O)c2cc(OC)c(OC)c(OC)c2)cc1O; test: Steady state kinetics of glucuronidation by recombinant UGT1A10; format: in vitro ADME, human; details: other: NI-12a-O-gluc formation; UDP-GlcUA 3 mM, 60 min, 37 °C
[5] = substrate: COc1ccc(C=Cc2cc(OC)cc(OC)c2/C=N/O)cc1; test: as above; format: in vitro ADME, human; details: other: NI-ST-05–N–O-gluc formation; Hill equation (S50)
[6] = substrate: COc1ccc(/C=C(/C(=O)O)c2cc(OC)c(OC)c(OC)c2)cc1O; test: Steady state kinetics of glucuronidation by recombinant UGT1A8; format: in vitro ADME, human; details: other: NI-12a-O-gluc formation, UDP-GlcUA 3 mM, 60 min, 37 °C

Molecule: Oc1ccc(/C=C/c2cc(O)cc(O)c2)cc1 [tRes, trans-3,5,4′-trihydroxystilbene]
- Vmax (UGT1A1): 31 nmol/mg/min
- Km (UGT1A9): 2.5 µM
- Vmax (UGT1A9; tRes-3-O-glucuronide formation): 2.5 nmol/mg/min

Molecule: CC(C)/C=C/c1c(O)cc(/C=C/c2ccc(O)cc2)cc1O [tA3]
- Km (UGT1A9): 21 µM

Molecule: trans-arachidin-1 [tA1]
- Km (UGT1A9): 190 µM

B1: UGT1A9 (Homo sapiens) (protein)
chain: T2 sequence (O60656 26-530)
- Km [1]: 240 ± 40 µM
- Vmax [1]: 0.0083 µmol/min/mg
- Vmax/Km [1]: 35 µL/min/mg

B2: UGT1A1 (Homo sapiens) (protein)
chain: T1 sequence (P22309 26-533)
- Vmax [2]: 0.00021 ± 2e-05 µmol/min/mg

B3: UGT1A7 (Homo sapiens) (protein)
chain: GKLLVVPMDGSHWFTMQSVVEKLILRGHEVVVVMPEVSWQLGRSLNCTVKTYSTSYTLEDQDREFMVFADARWTAPLRSAFSLLTSSSNGIFDLFFSNCRSLFNDRKLVEYLKESCFDAVFLDPFDACGLIVAKYFSLPSVVFARGIFCHYLEEGAQCPAPLSYVPRLLLGFSDAMTFKERVWNHIMHLEEHLFCPYFFKNVLEIASEILQTPVTAYDLYSHTSIWLLRTDFVLEYPKPVMPNMIFIGGINCHQGKPVPMEFEAYINASGEHGIVVFSLGSMVSEIPEKKAMAIADALGKIPQTVLWRYTGTRPSNLANNTILVKWLPQNDLLGHPMTRAFITHAGSHGVYESICNGVPMVMMPLFGDQMDNAKRMETKGAGVTLNVLEMTSEDLENALKAVINDKSYKENIMRLSSLHKDRPVEPLDLAVFWVEFVMRHKGAPHLRPAAHDLTWYQYHSLDVIGFLLAVVLTVAFITFKCCAYGYRKCLGKKGRVKKAHKSKTH
- Km [3]: 62 ± 43 µM
- Vmax [3]: 2.2 ± 0.77 nmol/mg/min
- Vmax/Km [3]: 35 µL/min/mg

B4: UGT1A10 (Homo sapiens) (protein)
chain: GKLLVVPMDGSHWFTMQSVVEKLILRGHEVVVVMPEVSWQLERSLNCTVKTYSTSYTLEDQNREFMVFAHAQWKAQAQSIFSLLMSSSSGFLDLFFSHCRSLFNDRKLVEYLKESSFDAVFLDPFDTCGLIVAKYFSLPSVVFTRGIFCHHLEEGAQCPAPLSYVPNDLLGFSDAMTFKERVWNHIVHLEDHLFCQYLFRNALEIASEILQTPVTAYDLYSHTSIWLLRTDFVLDYPKPVMPNMIFIGGINCHQGKPLPMEFEAYINASGEHGIVVFSLGSMVSEIPEKKAMAIADALGKIPQTVLWRYTGTRPSNLANNTILVKWLPQNDLLGHPMTRAFITHAGSHGVYESICNGVPMVMMPLFGDQMDNAKRMETKGAGVTLNVLEMTSEDLENALKAVINDKSYKENIMRLSSLHKDRPVEPLDLAVFWVEFVMRHKGAPHLRPAAHDLTWYQYHSLDVIGFLLAVVLTVAFITFKCCAYGYRKCLGKKGRVKKAHKSKTH
- Km [4]: 500 ± 75 µM
- Vmax [4]: 3.5 ± 0.24 nmol/mg/min
- Vmax/Km [4]: 7 µL/min/mg
- K0.5 [5]: 6.2 ± 0.35 µM
- Vmax [5]: 0.00065 µmol/min/mg
- Vmax/Km [5]: 105 µL/min/mg

B5: UGT1A8 (Homo sapiens) (protein)
chain: GKLLVVPMDGSHWFTMQSVVEKLILRGHEVVVVMPEVSWQLGKSLNCTVKTYSTSYTLEDLDREFMDFADAQWKAQVRSLFSLFLSSSNGFFNLFFSHCRSLFNDRKLVEYLKESSFDAVFLDPFDACGLIVAKYFSLPSVVFARGIACHYLEEGAQCPAPLSYVPRILLGFSDAMTFKERVRNHIMHLEEHLFCQYFSKNALEIASEILQTPVTAYDLYSHTSIWLLRTDFVLDYPKPVMPNMIFIGGINCHQGKPLPMEFEAYINASGEHGIVVFSLGSMVSEIPEKKAMAIADALGKIPQTVLWRYTGTRPSNLANNTILVKWLPQNDLLGHPMTRAFITHAGSHGVYESICNGVPMVMMPLFGDQMDNAKRMETKGAGVTLNVLEMTSEDLENALKAVINDKSYKENIMRLSSLHKDRPVEPLDLAVFWVEFVMRHKGAPHLRPAAHDLTWYQYHSLDVIGFLLAVVLTVAFITFKCCAYGYRKCLGKKGRVKKAHKSKTH
- Km [6]: 240 ± 76 µM
- Vmax [6]: 6.0 ± 1.3 nmol/mg/min
- Vmax/Km [6]: 25 µL/min/mg
